Measurements from publication doi:10.1101/2020.07.15.204800 (bioRxiv, 2020).

Target: T1, PQLC2-FLAG wild type (human, UniProt Q6ZP29 1-291)
T1 sequence: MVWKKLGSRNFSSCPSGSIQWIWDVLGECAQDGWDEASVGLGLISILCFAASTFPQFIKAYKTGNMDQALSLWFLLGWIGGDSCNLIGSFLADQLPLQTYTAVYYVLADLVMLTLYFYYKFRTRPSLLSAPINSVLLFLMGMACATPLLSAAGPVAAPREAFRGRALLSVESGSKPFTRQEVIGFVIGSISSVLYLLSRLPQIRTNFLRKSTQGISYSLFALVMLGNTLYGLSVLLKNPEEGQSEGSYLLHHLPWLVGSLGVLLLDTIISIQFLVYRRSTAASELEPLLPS
Assay: pull-down

binding result: binds
B1: GST-WDR41-PIP (GST fused to the 10 amino acid PIP sequence) (peptide)
chain: TGFFNMWGFG
